Data from publication PMC2156126.

Biological target: GST-VCA (GST fusion of human N-WASP residues 392-505) on glutathione Sepharose (human) (UniProt O00401)
Assay: pull-down

Sequence of GST-VCA (GST fusion of human N-WASP residues 392-505) on glutathione Sepharose (human) (O00401 392-505): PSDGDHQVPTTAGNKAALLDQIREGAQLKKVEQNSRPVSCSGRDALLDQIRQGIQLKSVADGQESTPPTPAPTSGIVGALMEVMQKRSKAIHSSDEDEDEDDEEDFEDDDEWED

- percent depleted from the extract by the beads: > 80%
Substance: Arp2/3 complex endogenous in human platelet extracts (from UniProt P61158;P61160;O15145)
